Experimental data published in IntAct's records for PubMed 29749471.

B1: Bcl-2-like protein 12 (Homo sapiens), Q9HB09 (parent)
chain: MAGSEELGLREDTLRVLAAFLRRGEAAGSPVPTPPRSPAQEEPTDFLSRLRRCLPCSLGRGAAPSESPRPCSLPIRPCYGLEPGPATPDFYALVAQRLEQLVQEQLKSPPSPELQGPPSTEKEAILRRLVALLEEEAEVINQKLASDPALRSKLVRLSSDSFARLVELFCSRDDSSRPSRACPGPPPPSPEPLARLALAMELSRRVAGLGGTLAGLSVEHVHSFTPWIQAHGGWEGILAVSPVDLNLPLD

Variants of: B1
Conditions: with bax_human BAX

| effect of a mutation on the interaction | Variant |
| --- | --- |
| with no effect | MAGSEELGLREDTLRVLAAFLRRGEAAGSPVPTPPRSPAQEEPTDFLSRLRRCLPCSLGRGAAPSESPRPCSLPIRPCYGLEPGPATPDFYALVAQRLEQLVQEQLKSPPSPELQGPPSTEKEAILRRLVALLAEEAEVINQKLASDPALRSKLVRLSSDSFARLVELFCSRDDSSRPSRACPGPPPPSPEPLARLALAMELSRRVAGLGGTLAGLSVEHVHSFTPWIQAHGGWEGILAVSPVDLNLPLD [E134A] |
| with no effect | MAGSEELGLREDTLRVLAAFLRRGEAAGSPVPTPPRSPAQEEPTDFLSRLRRCLPCSLGRGAAPSESPRPCSLPIRPCYGLEPGPATPDFYALVAQRLEQLVQEQLKSPPSPELQGPPSTEKEAILRRLVALLEEAAEVINQKLASDPALRSKLVRLSSDSFARLVELFCSRDDSSRPSRACPGPPPPSPEPLARLALAMELSRRVAGLGGTLAGLSVEHVHSFTPWIQAHGGWEGILAVSPVDLNLPLD [E136A] |

More lines, now with the values behind:

| Variant | effect of a mutation on the interaction |
| --- | --- |
| MAGSEELGLREDTLRVLAAFLRRGEAAGSPVPTPPRSPAQEEPTDFLSRLRRCLPCSLGRGAAPSESPRPCSLPIRPCYGLEPGPATPDFYALVAQRLEQLVQEQLKSPPSPELQGPPSTEKEAILRRLVAALEEEAEVINQKLASDPALRSKLVRLSSDSFARLVELFCSRDDSSRPSRACPGPPPPSPEPLARLALAMELSRRVAGLGGTLAGLSVEHVHSFTPWIQAHGGWEGILAVSPVDLNLPLD [L132A] | with no effect |
| MAGSEELGLREDTLRVLAAFLRRGEAAGSPVPTPPRSPAQEEPTDFLSRLRRCLPCSLGRGAAPSESPRPCSLPIRPCYGLEPGPATPDFYALVAQRLEQLVQEQLKSPPSPELQGPPSTEKEAALRRLVALLEEEAEVINQKLASDPALRSKLVRLSSDSFARLVELFCSRDDSSRPSRACPGPPPPSPEPLARLALAMELSRRVAGLGGTLAGLSVEHVHSFTPWIQAHGGWEGILAVSPVDLNLPLD [I125A] | with no effect |
| MAGSEELGLREDTLRVLAAFLRRGEAAGSPVPTPPRSPAQEEPTDFLSRLRRCLPCSLGRGAAPSESPRPCSLPIRPCYGLEPGPATPDFYALVAQRLEQLVQEQLKSPPSPELQGPPSTEKEAILRRLVALAEEEAEVINQKLASDPALRSKLVRLSSDSFARLVELFCSRDDSSRPSRACPGPPPPSPEPLARLALAMELSRRVAGLGGTLAGLSVEHVHSFTPWIQAHGGWEGILAVSPVDLNLPLD [L133A] | with no effect |
| MAGSEELGLREDTLRVLAAFLRRGEAAGSPVPTPPRSPAQEEPTDFLSRLRRCLPCSLGRGAAPSESPRPCSLPIRPCYGLEPGPATPDFYALVAQRLEQLVQEQLKSPPSPELQGPPSTEKEAILRRAVALLEEEAEVINQKLASDPALRSKLVRLSSDSFARLVELFCSRDDSSRPSRACPGPPPPSPEPLARLALAMELSRRVAGLGGTLAGLSVEHVHSFTPWIQAHGGWEGILAVSPVDLNLPLD [L129A] | with no effect |

Variants of: B1
Conditions: with gsk3b_human GSK3B

| effect of a mutation on the interaction | Variant |
| --- | --- |
| disrupting interaction strength | MAGSEELGLREDTLRVLAAFLRRGEAAGSPVPTPPRSPAQEEPTDFLSRLRRCLPCSLGRGAAPSESPRPCSLPIRPCYGLEPGPATPDFYALVAQRLEQLVQEQLKSPPSPELQGPPSTEKEAALRRLVALLEEEAEVINQKLASDPALRSKLVRLSSDSFARLVELFCSRDDSSRPSRACPGPPPPSPEPLARLALAMELSRRVAGLGGTLAGLSVEHVHSFTPWIQAHGGWEGILAVSPVDLNLPLD [I125A] |

Variants of: B1
Conditions: with BCL2L1, Q07817-1
BCL2L1, Q07817-1, sequence (Q07817 whole entry): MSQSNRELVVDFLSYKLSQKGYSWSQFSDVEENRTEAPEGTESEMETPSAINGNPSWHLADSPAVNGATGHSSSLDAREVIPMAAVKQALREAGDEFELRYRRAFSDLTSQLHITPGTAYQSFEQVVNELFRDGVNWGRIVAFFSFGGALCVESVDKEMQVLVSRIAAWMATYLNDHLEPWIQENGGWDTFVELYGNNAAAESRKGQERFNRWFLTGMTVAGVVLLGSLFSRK

| effect of a mutation on the interaction | Variant |
| --- | --- |
| disrupting interaction strength | MAGSEELGLREDTLRVLAAFLRRGEAAGSPVPTPPRSPAQEEPTDFLSRLRRCLPCSLGRGAAPSESPRPCSLPIRPCYGLEPGPATPDFYALVAQRLEQLVQEQLKSPPSPELQGPPSTEKEAILRRAVALLEEEAEVINQKLASDPALRSKLVRLSSDSFARLVELFCSRDDSSRPSRACPGPPPPSPEPLARLALAMELSRRVAGLGGTLAGLSVEHVHSFTPWIQAHGGWEGILAVSPVDLNLPLD [L129A] |

Variants of: B1
Conditions: with bcl2_human BCL2, P10415
bcl2_human BCL2, P10415, sequence (P10415 whole entry): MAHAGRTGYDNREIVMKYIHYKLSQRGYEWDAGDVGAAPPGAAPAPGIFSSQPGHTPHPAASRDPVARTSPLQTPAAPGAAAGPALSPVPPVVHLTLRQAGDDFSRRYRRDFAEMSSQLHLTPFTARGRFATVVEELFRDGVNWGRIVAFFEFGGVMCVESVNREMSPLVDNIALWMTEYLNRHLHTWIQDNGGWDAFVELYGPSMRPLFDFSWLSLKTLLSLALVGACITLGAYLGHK

| effect of a mutation on the interaction | Variant |
| --- | --- |
| disrupting interaction strength | MAGSEELGLREDTLRVLAAFLRRGEAAGSPVPTPPRSPAQEEPTDFLSRLRRCLPCSLGRGAAPSESPRPCSLPIRPCYGLEPGPATPDFYALVAQRLEQLVQEQLKSPPSPELQGPPSTEKEAILRRAVALLEEEAEVINQKLASDPALRSKLVRLSSDSFARLVELFCSRDDSSRPSRACPGPPPPSPEPLARLALAMELSRRVAGLGGTLAGLSVEHVHSFTPWIQAHGGWEGILAVSPVDLNLPLD [L129A] |
